# Results as given in patent US20090068679A1.
# Tests used:
# [1] = molecular target: recombinant human PlGF (R&D Systems, Catalog No. 264-PG/CF) (human) (UniProt P49763); experiment: sandwich ELISA: mAb coated 3 ug/ml; PlGF 25 ng/ml; anti-PlGF-POD
# [2] = molecular target: recombinant human PlGF (R&D Systems, Catalog No. 264-PG/CF) (human) (UniProt P49763); experiment: sandwich ELISA: mAb coated 3 ug/ml; PlGF 50 ng/ml; anti-PlGF-POD
# [3] = molecular target: recombinant human PlGF (R&D Systems, Catalog No. 264-PG/CF) (human) (UniProt P49763); experiment: sandwich ELISA: mAb coated 3 ug/ml; PlGF 0.78 ng/ml; anti-PlGF-POD
# [4] = molecular target: recombinant human PlGF (R&D Systems, Catalog No. 264-PG/CF) (human) (UniProt P49763); experiment: sandwich ELISA: mAb coated 3 ug/ml; PlGF 1.56 ng/ml; anti-PlGF-POD
# [5] = molecular target: recombinant human PlGF (R&D Systems, Catalog No. 264-PG/CF) (human) (UniProt P49763); experiment: sandwich ELISA: mAb coated 3 ug/ml; PlGF 12.5 ng/ml; anti-PlGF-POD
# [6] = molecular target: recombinant human PlGF (R&D Systems, Catalog No. 264-PG/CF) (human) (UniProt P49763); experiment: sandwich ELISA: mAb coated 3 ug/ml; PlGF 3.13 ng/ml; anti-PlGF-POD
# [7] = molecular target: recombinant human PlGF (R&D Systems, Catalog No. 264-PG/CF) (human) (UniProt P49763); experiment: sandwich ELISA: mAb coated 3 ug/ml; PlGF 6.25 ng/ml; anti-PlGF-POD
# [8] = molecular target: recombinant human PlGF (R&D Systems, Catalog No. 264-PG/CF) (human) (UniProt P49763); experiment: sandwich ELISA: mAb 0.1 ug/ml on anti-mouse IgG plate, PlGF 0.1 ug/ml, anti-PlGF-POD
# [9] = molecular target: recombinant human PlGF (R&D Systems, Catalog No. 264-PG/CF) (human) (UniProt P49763); experiment: sandwich ELISA: mAb 1.0 ug/ml on anti-mouse IgG plate, PlGF 0.1 ug/ml, anti-PlGF-POD
# [10] = molecular target: P/GF/sFlt-1 complex (gP/GF) (human) (UniProt P49763); experiment: ELISA: PlGF 1 ug/ml on plate-captured Flt-1/Fc 1 ug/ml; mAb 0.1 ug/ml; anti-mouse IgG-POD
# [11] = molecular target: P/GF/sFlt-1 complex (gP/GF) (human) (UniProt P49763); experiment: ELISA: PlGF 1 ug/ml on plate-captured Flt-1/Fc 1 ug/ml; mAb 1.0 ug/ml; anti-mouse IgG-POD
# [12] = molecular target: P/GF/sFlt-1 complex (gP/GF) (human) (UniProt P49763); experiment: sandwich ELISA: mAb coated 3 ug/ml; PlGF 25 + Flt-1/Fc 400 (ng/ml) pre-incubated; anti-VEGF R1-POD
# [13] = molecular target: P/GF/sFlt-1 complex (gP/GF) (human) (UniProt P49763); experiment: sandwich ELISA: mAb coated 3 ug/ml; PlGF 0.39 + Flt-1/Fc 400 (ng/ml) pre-incubated; anti-VEGF R1-POD
# [14] = molecular target: P/GF/sFlt-1 complex (gP/GF) (human) (UniProt P49763); experiment: sandwich ELISA: mAb coated 3 ug/ml; PlGF 0.78 + Flt-1/Fc 400 (ng/ml) pre-incubated; anti-VEGF R1-POD
# [15] = molecular target: P/GF/sFlt-1 complex (gP/GF) (human) (UniProt P49763); experiment: sandwich ELISA: mAb coated 3 ug/ml; PlGF 1.56 + Flt-1/Fc 400 (ng/ml) pre-incubated; anti-VEGF R1-POD
# [16] = molecular target: P/GF/sFlt-1 complex (gP/GF) (human) (UniProt P49763); experiment: sandwich ELISA: mAb coated 3 ug/ml; PlGF 12.5 + Flt-1/Fc 400 (ng/ml) pre-incubated; anti-VEGF R1-POD
# [17] = molecular target: P/GF/sFlt-1 complex (gP/GF) (human) (UniProt P49763); experiment: sandwich ELISA: mAb coated 3 ug/ml; PlGF 3.13 + Flt-1/Fc 400 (ng/ml) pre-incubated; anti-VEGF R1-POD
# [18] = molecular target: P/GF/sFlt-1 complex (gP/GF) (human) (UniProt P49763); experiment: sandwich ELISA: mAb coated 3 ug/ml; PlGF 6.25 + Flt-1/Fc 400 (ng/ml) pre-incubated; anti-VEGF R1-POD
substance,measurement,setting,value
antibody MAB264 from R&D Systems,Extinction at 450 nm,[1],1.47
same,Extinction at 450 nm,[2],2.5
same,Extinction at 450 nm,[3],0.05
same,Extinction at 450 nm,[4],0.081
same,Extinction at 450 nm,[5],0.885
same,Extinction at 450 nm,[6],0.232
same,Extinction at 450 nm,[7],0.468
same,Extinction at 450 nm,[8],1.9
same,Extinction at 450 nm,[9],2.5
same,Extinction at 450 nm,[10],0.217
same,Extinction at 450 nm,[11],0.691
same,Extinction at 450 nm,[12],2.19
same,Extinction at 450 nm,[13],0.094
same,Extinction at 450 nm,[14],0.146
same,Extinction at 450 nm,[15],0.272
same,Extinction at 450 nm,[16],1.61
same,Extinction at 450 nm,[17],0.529
same,Extinction at 450 nm,[18],0.883
